Experimental findings from article PMC11417181, “The SCR-17 and SCR-18 glycans in human complement factor H enhance its regulatory function” (The Journal of Biological Chemistry, 2024) are described below.

Data set [1] deals with the molecule itself. In words: AUC; sedimentation velocity of the SCR fragments, 20 °C, 50,000 rpm, Hepes buffer (10 mM Hepes, 137 mM NaCl, pH 7.4), c(s) analysis in SEDFIT, proportions of monomer and dimer from peak integration; monomer to dimer.
Data set [2] concerns the molecule itself. The data set is described as above. The source holds these as a separate data set.
For the next data set, the target named is T1, complement C3b (human, UniProt P01024 23-667; P01024 749-1663, free thiol group in C3b blocked with iodoacetamide (the paper does not say on which chain)).
T1 construct: Amine-coupled to a CM5 chip in the SPR experiment
In words: SPR; Biacore X100, C3b amine-coupled to a CM5 chip, CFH preparations flowed at 0.05 to 7.75 μM, 25 °C, Hepes buffer with 0.005% Tween20, single-cycle, 1:1 steady-state affinity fit. As to conditions: both partners purified.

For orientation: stoichiometry N means the number of molecules, sites or subunits per partner or assembly. A word on the Kd: it is the free concentration of one partner at which half of the binding sites on the other are occupied at equilibrium, for simple one-to-one binding.

glycan = not defined here

T1 sequence (P01024 23-667, chain 1 of 2): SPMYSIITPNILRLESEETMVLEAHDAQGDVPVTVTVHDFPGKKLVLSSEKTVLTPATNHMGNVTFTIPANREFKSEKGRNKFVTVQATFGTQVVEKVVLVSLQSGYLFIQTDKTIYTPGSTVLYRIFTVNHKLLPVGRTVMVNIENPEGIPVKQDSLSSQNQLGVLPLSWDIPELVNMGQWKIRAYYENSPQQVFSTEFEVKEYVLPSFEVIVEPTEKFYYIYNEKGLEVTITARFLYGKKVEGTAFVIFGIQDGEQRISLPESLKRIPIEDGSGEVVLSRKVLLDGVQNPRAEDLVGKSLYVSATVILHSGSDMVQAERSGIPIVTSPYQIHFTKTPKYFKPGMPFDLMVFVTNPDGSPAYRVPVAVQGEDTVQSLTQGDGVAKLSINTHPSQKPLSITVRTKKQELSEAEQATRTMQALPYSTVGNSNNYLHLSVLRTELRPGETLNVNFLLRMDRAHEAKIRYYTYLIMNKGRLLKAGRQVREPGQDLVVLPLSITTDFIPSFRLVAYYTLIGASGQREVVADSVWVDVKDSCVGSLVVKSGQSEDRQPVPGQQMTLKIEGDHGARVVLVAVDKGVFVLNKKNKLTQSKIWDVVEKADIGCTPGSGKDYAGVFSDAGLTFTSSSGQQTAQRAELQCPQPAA
T1 sequence (P01024 749-1663, chain 2 of 2): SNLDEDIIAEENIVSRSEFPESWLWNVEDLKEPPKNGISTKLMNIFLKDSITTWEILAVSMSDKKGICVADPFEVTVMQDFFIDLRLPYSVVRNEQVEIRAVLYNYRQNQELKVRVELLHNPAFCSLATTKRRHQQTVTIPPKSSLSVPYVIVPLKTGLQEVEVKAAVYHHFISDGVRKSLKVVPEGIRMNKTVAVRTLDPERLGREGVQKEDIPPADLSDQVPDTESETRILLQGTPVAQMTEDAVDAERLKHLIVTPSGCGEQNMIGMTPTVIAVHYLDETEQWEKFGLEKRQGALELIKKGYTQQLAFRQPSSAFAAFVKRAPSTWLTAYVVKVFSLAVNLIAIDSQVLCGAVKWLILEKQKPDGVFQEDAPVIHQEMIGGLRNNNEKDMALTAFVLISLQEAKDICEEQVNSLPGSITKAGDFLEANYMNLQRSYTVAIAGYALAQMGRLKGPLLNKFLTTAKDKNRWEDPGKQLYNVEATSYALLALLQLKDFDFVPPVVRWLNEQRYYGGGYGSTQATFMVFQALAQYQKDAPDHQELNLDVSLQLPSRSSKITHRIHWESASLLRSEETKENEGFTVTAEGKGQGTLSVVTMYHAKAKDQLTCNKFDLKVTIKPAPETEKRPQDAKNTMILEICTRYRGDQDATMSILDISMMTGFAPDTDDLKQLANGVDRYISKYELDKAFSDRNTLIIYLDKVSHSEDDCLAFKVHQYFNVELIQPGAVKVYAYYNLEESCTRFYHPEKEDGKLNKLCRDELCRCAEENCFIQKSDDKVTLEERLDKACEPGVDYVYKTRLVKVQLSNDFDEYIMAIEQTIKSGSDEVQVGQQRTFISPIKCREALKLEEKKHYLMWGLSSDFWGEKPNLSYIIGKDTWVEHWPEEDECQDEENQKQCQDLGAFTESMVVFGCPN

B1: SCR-16/20, glycosylated five-domain C-terminal fragment of complement factor H expressed in Pichia pastoris (domain or fragment)
chain: EGLPCKSPPEISHGVVAHMSDSYQYGEEVTYKCFEGFGIDGPAIAKCLGEKWSHPPSCIKTDCLSLPSFENAIPMGEKKDVYKAGEQVTYTCATYYKMDGASNVTCINSRWTGRPTCRDTSCVNPPTVQNAYIVSRQMSKYPSGERVRYQCRSPYEMFGDEEVMCLNGNWTEPPQCKDSTGKCGPPPPIDNGDITSFPLSVYAPASSVEYQCQNLYQLEGNKRITCRNGQWSEPPKCLHPCVISREIMENYNIALRWTAKQKLYSRTGESVEFVCKRGYRLSSRSHTLRTTCWDGKLEYPTCAKR
modifications: Pichia hyperglycosylated N-linked glycans at Asn1011 and Asn1077
In the case of B1, the “stoichiometry N” value in data set [1] was 2. Also, in data set [2], the proportion of dimer turned out to be 8%.

B2: SCR-16/20 deglycosylated with PNGase F (domain or fragment)
chain: B1 chain
modifications: N-linked glycans at Asn1011 and Asn1077 removed with PNGase F
Turning to B2, in data set [1], the “stoichiometry N” value was 2. In addition, the proportion of dimer in data set [2] was 2%.

B3: SCR-18H, glycosylated single-domain fragment of complement factor H expressed in Pichia pastoris (domain or fragment)
chain: RDTSCVNPPTVQNAYIVSRQMSKYPSGERVRYQCRSPYEMFGDEEVMCLNGN(glycan)WTEPPQCKDST
modifications: reading uncertain; also: N-linked hyperglycosylation (Pichia) at Asn1077, recombinant protein
Turning to B3, the “stoichiometry N” value in data set [1] turned out to be 2. This molecule registered a proportion of dimer in data set [2] of 57%.

B4: SCR-16/18H, glycosylated three-domain fragment of complement factor H expressed in Pichia pastoris (domain or fragment)
chain: EGLPCKSPPEISHGVVAHMSDSYQYGEEVTYKCFEGFGIDGPAIAKCLGEKWSHPPSCIKTDCLSLPSFENAIPMGEKKDVYKAGEQVTYTCATYYKMDGASNVTCINSRWTGRPTCRDTSCVNPPTVQNAYIVSRQMSKYPSGERVRYQCRSPYEMFGDEEVMCLNGNWTEPPQCKDST
modifications: Pichia hyperglycosylated N-linked glycans at Asn1011 and Asn1077
As to B4, the “stoichiometry N” value in data set [1] was 2. The proportion of dimer in data set [2] was 78%.

B5: SCR-16/18H deglycosylated with PNGase F (domain or fragment)
chain: B4 chain
modifications: N-linked glycans at Asn1011 and Asn1077 treated with PNGase F (the paper suggests that removal may have been impeded)
Turning to B5, the “stoichiometry N” value in data set [1] is 2. In data set [2], this molecule registered a proportion of dimer of 63%.

B6: SCR-17H, glycosylated single-domain fragment of complement factor H expressed in Pichia pastoris (domain or fragment)
chain: IKTDCLSLPSFENAIPMGEKKDVYKAGEQVTYTCATYYKMDGASN(glycan)VTCINSRWTGRPTCRDTS
modifications: reading uncertain; also: N-linked hyperglycosylation (Pichia) at Asn1011, recombinant protein
With B6, the “stoichiometry N” value in data set [1] was determined as 2. This molecule gave a proportion of dimer in data set [2] of 67%.

B7: SCR-17/18H, glycosylated two-domain fragment of complement factor H expressed in Pichia pastoris (domain or fragment)
chain: IKTDCLSLPSFENAIPMGEKKDVYKAGEQVTYTCATYYKMDGASNVTCINSRWTGRPTCRDTSCVNPPTVQNAYIVSRQMSKYPSGERVRYQCRSPYEMFGDEEVMCLNGNWTEPPQCKDST
modifications: Pichia hyperglycosylated N-linked glycans (Man8-18GlcNAc2) at Asn1011 and Asn1077
For the molecule B7, in data set [1], the “stoichiometry N” value came out at 2. The molecule also had a proportion of dimer in data set [2] of 72%.

B8: complement factor H, native glycosylated, full-length, purified from human plasma (natural protein, UniProt P08603 19-1231, looked up)
chain: EDCNELPPRRNTEILTGSWSDQTYPEGTQAIYKCRPGYRSLGNVIMVCRKGEWVALNPLRKCQKRPCGHPGDTPFGTFTLTGGNVFEYGVKAVYTCNEGYQLLGEINYRECDTDGWTNDIPICEVVKCLPVTAPENGKIVSSAMEPDREYHFGQAVRFVCNSGYKIEGDEEMHCSDDGFWSKEKPKCVEISCKSPDVINGSPISQKIIYKENERFQYKCNMGYEYSERGDAVCTESGWRPLPSCEEKSCDNPYIPNGDYSPLRIKHRTGDEITYQCRNGFYPATRGNTAKCTSTGWIPAPRCTLKPCDYPDIKHGGLYHENMRRPYFPVAVGKYYSYYCDEHFETPSGSYWDHIHCTQDGWSPAVPCLRKCYFPYLENGYNQNYGRKFVQGKSIDVACHPGYALPKAQTTVTCMENGWSPTPRCIRVKTCSKSSIDIENGFISESQYTYALKEKAKYQCKLGYVTADGETSGSITCGKDGWSAQPTCIKSCDIPVFMNARTKNDFTWFKLNDTLDYECHDGYESNTGSTTGSIVCGYNGWSDLPICYERECELPKIDVHLVPDRKKDQYKVGEVLKFSCKPGFTIVGPNSVQCYHFGLSPDLPICKEQVQSCGPPPELLNGNVKEKTKEEYGHSEVVEYYCNPRFLMKGPNKIQCVDGEWTTLPVCIVEESTCGDIPELEHGWAQLSSPPYYYGDSVEFNCSESFTMIGHRSITCIHGVWTQLPQCVAIDKLKKCKSSNLIILEEHLKNKKEFDHNSNIRYRCRGKEGWIHTVCINGRWDPEVNCSMAQIQLCPPPPQIPNSHNMTTTLNYRDGEKVSVLCQENYLIQEGEEITCKDGRWQSIPLCVEKIPCSQPPQIEHGTINSSRSSQESYAHGTKLSYTCEGGFRISEENETTCYMGKWSSPPQCEGLPCKSPPEISHGVVAHMSDSYQYGEEVTYKCFEGFGIDGPAIAKCLGEKWSHPPSCIKTDCLSLPSFENAIPMGEKKDVYKAGEQVTYTCATYYKMDGASNVTCINSRWTGRPTCRDTSCVNPPTVQNAYIVSRQMSKYPSGERVRYQCRSPYEMFGDEEVMCLNGNWTEPPQCKDSTGKCGPPPPIDNGDITSFPLSVYAPASSVEYQCQNLYQLEGNKRITCRNGQWSEPPKCLHPCVISREIMENYNIALRWTAKQKLYSRTGESVEFVCKRGYRLSSRSHTLRTTCWDGKLEYPTCAKR
modifications: eight N-linked biantennary complex-type glycans, among them those at Asn1011 (SCR-17) and Asn1077 (SCR-18)
notes: human complement factor H, 20 SCR domains, Tyr402 form; For the SPR self-association experiment the immobilised copy was biotinylated (EZ-Link Biotinylation kit) and captured on a streptavidin chip; the copy in solution was not labelled; also called CFH; native CFH
In the data set with complement C3b, B8 had a dissociation constant (Kd) of 900 ± 60 nM.

B9: partially deglycosylated complement factor H (100 h PNGase F) (natural protein, human, UniProt P08603 19-1231, looked up)
chain: B8 chain
modifications: N-linked glycans partly removed with PNGase F: forms with three to six glycan chains were present
notes: Mixture of glycoforms; also called partially deglycosylated CFH; CFH partially glycosylated; source: purified from human plasma, then PNGase F for 100 h at 37 °C, gel filtration
As for B9, the affinity in the data set with complement C3b, expressed as Kd, was 2530 ± 420 nM.

B10: fully deglycosylated complement factor H (200 h PNGase F) (natural protein, human, UniProt P08603 19-1231, looked up)
chain: B8 chain
modifications: N-linked glycans removed with PNGase F: eight, seven, six or five removed, leaving none, one, two or three glycans
notes: Mixture of forms with none to three glycans left; also called fully deglycosylated CFH; CFH-De; source: purified from human plasma, then PNGase F for 200 h at 37 °C, gel filtration
In the data set with complement C3b, B10 showed a Kd of 3780 ± 450 nM.
